Assay results from patent US20260242465A1 (CELSIUS THERAPEUTICS, published 2026).

Tests used:
[1] = target: T1, hFcγRIIA167R (human, UniProt P12318 34-218); experiment: SPR (Biacore T200), single-cycle kinetics; His-tagged FcγR captured, antibody as analyte; replicate 1
T1 construct: also called FcγRII (167R polymorphism); not shown: His tag
T1 sequence (looked up): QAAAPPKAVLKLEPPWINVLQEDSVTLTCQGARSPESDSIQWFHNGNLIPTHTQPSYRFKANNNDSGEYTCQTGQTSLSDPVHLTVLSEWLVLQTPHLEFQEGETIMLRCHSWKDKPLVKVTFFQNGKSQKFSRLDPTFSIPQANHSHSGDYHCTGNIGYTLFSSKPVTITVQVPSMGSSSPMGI
Description: (§1) Human Fc receptors, FcγRI, FcγRII (both 167R and 167H polymorphisms), FcγRIIB, FcγRIIIA (both 176F and 176V polymorphisms) and FcγRIIIB were obtained from Sino Biological (Beijing, China). FcγR were captured on a CM5 sensor chip pre-coupled using a His capture kit (Cytiva, Uppsala, Sweden) using standard amine chemistry.
(§2) At the start of each cycle, His-tagged Fcγ receptors diluted in HBS-P+ (Cytiva, Uppsala, Sweden) were loaded to a specific RU level. A five point, three-fold dilution range of test antibody without regeneration between each concentration was used for each receptor tested. Antibodies were passed over the chip in increasing concentrations followed by a single dissociation step. Following dissociation, the chip was regenerated with two injections of glycine (pH 1.5).

[2] = target: T2, hFcγRIIIA176V (human, UniProt P08637 17-208); experiment: as above
T2 construct: Bought; also called FcγRIIIA (176V polymorphism); not shown: His tag
Description: as §1, §2

[3] = target: T1, hFcγRIIA167R; experiment: SPR (Biacore T200), single-cycle kinetics; replicate 1
Description: as §1, §2

[4] = target: T2, hFcγRIIIA176V; experiment: as above
Description: as §1, §2

[5] = target: T3, recombinant monovalent rabbit TREM1-ECD (rabbit); experiment: BLI; antibody on AHC sensor, monovalent TREM1-ECD in solution
T3 construct: extracellular domain
Description: (§3) Sensors were monitored to establish a baseline.
(§4) The coefficient of determination of the 1:1 model fit to the BLI sensorgrams is represented by the R\hat{ }2 value. Data for human and cynomolgus monkey represents averages across three replicates. Data for pig, dog, rabbit, rat, and mouse represents averages across two replicates.

[6] = target: T4, recombinant monovalent pig TREM1-ECD (pig (Sus scrofa), UniProt Q6TYI6 21-210); experiment: as above
T4 construct: whole entry named
T4 sequence: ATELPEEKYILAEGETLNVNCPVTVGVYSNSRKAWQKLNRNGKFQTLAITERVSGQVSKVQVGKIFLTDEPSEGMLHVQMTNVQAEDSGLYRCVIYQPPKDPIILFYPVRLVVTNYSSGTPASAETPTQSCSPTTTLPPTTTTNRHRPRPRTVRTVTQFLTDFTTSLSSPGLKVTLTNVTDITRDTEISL
Description: as §3, §4

[7] = target: T5, recombinant monovalent cynomolgus monkey TREM1-ECD (cynomolgus monkey); experiment: as above
T5 construct: whole entry named; also called cyno TREM1-ECD
T5 chain: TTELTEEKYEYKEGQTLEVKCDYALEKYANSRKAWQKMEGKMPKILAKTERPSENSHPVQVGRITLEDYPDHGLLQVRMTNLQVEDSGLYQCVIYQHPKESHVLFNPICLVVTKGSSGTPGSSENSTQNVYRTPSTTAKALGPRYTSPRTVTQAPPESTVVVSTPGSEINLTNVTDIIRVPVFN
Description: as §3, §4

[8] = target: T6, recombinant monovalent mouse TREM1-ECD (mouse, UniProt Q9JKE2 21-202); experiment: as above
T6 construct: whole entry named
T6 sequence: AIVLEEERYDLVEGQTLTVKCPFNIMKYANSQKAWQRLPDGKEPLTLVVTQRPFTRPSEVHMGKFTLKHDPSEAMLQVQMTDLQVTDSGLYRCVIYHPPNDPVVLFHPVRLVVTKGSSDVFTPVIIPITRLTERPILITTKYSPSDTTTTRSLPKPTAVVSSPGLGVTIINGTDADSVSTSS
Description: as §3, §4

[9] = target: T7, recombinant monovalent dog TREM1-ECD (dog (Canis familiaris)); experiment: as above
T7 construct: whole entry named
T7 chain: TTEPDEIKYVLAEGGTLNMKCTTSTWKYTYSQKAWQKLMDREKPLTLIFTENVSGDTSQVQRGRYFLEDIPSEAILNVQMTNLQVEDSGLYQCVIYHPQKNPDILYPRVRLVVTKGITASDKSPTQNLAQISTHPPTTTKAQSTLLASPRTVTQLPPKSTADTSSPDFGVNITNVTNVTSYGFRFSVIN
Description: as §3, §4

[10] = target: T1, hFcγRIIA167R; experiment: SPR (Biacore T200), single-cycle kinetics; replicate 2
Description: as §1, §2

[11] = target: T2, hFcγRIIIA176V; experiment: as above
Description: as §1, §2

[12] = target: T8, purified human C1q (human, UniProt P02745 23-245; P02746 28-253; P02747 29-245); experiment: ELISA; antibody coated in serial dilutions, human C1q at 5 µg/ml, anti-C1q-HRP
T8 construct: Purified from HyCult Biotech; also called complement protein C1q
Description: Plates were blocked with IX PBS (pH 7.4) with 2% w/v BSA. After blocking, purified human C1q (HyCult Biotech, Wayne, Pennsylvania) at 5 μg/ml was added to the ELISA plates for binding, Plates were washed an anti-C1q-HRP (Abcam, Cambridge, UK) was diluted 1:1000 in blocking buffer and added to the ELISA plates for detection. After washing, TMB microwell peroxidase substrate (Life Technologies) was added for detection. The reaction was stopped with TMB stop solution (VWR, Lutterworth, Leicestershire) after 5 minutes. Absorbance was read at 450 nm using a SpectraMax M3 plate reader (Molecular Devices, Wokingham, UK).

[13] = target: T9, cynomolgus monkey TREM1 on neutrophils (cynomolgus monkey); experiment: flow cytometry of whole blood, free TREM1 on neutrophils (percent of baseline) in cynomolgus monkeys dosed IV once weekly for 14 weeks
T9 construct: Endogenous receptor on neutrophils of dosed animals (receptor occupancy by flow cytometry); also called free TREM1 receptors on neutrophils (cynomolgus)
T9 chain: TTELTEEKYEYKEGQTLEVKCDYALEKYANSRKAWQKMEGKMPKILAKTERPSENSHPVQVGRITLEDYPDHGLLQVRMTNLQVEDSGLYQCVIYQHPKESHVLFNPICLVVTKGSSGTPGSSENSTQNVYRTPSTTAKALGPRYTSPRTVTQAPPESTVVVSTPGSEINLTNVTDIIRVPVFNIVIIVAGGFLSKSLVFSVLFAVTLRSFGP

[14] = target: T10, human TREM2 expressed on HEK293 cells (human, UniProt Q9NZC2 19-230); experiment: polyspecificity assay; flow cytometry on transfected HEK293 cells
T10 construct: whole, on cells; Named member of the array of more than 6,000 human membrane proteins; also called TREM2 (membrane protein array)
T10 sequence (looked up): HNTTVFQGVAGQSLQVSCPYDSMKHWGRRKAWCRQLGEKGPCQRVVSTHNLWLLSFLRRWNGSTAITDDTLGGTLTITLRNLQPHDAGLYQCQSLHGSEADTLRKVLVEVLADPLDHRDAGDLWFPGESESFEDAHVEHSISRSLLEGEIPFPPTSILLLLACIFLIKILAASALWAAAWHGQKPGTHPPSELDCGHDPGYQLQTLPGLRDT
Description: Transient transfection was used to express an array of each of more than 6,000 human membrane proteins including TREM2 and other TREM family members on the surface of HEK293 cells. […] TMEM178A is an intracellular protein that localizes to the endoplasmic reticulum; see e.g., Decker et al., Proc. Natl. Acad. Sci., 112(51):15654-9 (2015).

[15] = target: T1, hFcγRIIA167R; experiment: SPR (Biacore T200), single-cycle kinetics; His-tagged FcγR captured, antibody as analyte; replicate 2
Description: as §1, §2

[16] = target: T2, hFcγRIIIA176V; experiment: as above
Description: as §1, §2

[17] = target: T11, human TREM2-ECD fused to an Fc domain (human, UniProt Q9NZC2 19-174); experiment: bio-layer interferometry, TREM2-ECD-Fc immobilised on the sensor, antibody in solution, maximum response
T11 construct: extracellular domain; the text tells one result for TREM2-ECD, so they are written as one molecule; also called human TREM2-ECD (BioLegend, 786404 and R&D Systems, 1828-T2-050); not shown: Fc domain
T11 sequence (looked up): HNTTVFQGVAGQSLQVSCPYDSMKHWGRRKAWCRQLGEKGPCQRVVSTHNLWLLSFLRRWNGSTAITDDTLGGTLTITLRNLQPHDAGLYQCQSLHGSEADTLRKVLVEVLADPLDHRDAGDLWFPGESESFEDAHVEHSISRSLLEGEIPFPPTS
Description: In addition to TREM1, the TREM gene family also includes TREM2. […] Without wishing to be bound by any particular theory, TREM1 and TREM2 are thought to play opposing roles in modulating immune responses; see e.g., Sharif and Knapp, Immunobiology, 213(9-10):701-713 (2008). […] Briefly, 10 μg/mL TREM2-ECD fused to an Fc domain was immobilized on a sensor. Sensors were quenched and monitored to establish a baseline. […] The maximum BLI response was measured (FIG. 13).

[18] = target: T12, recombinant hTREM1-chFc1 (human); experiment: bio-layer interferometry blocking assay: hTREM1-chFc1 on AHC biosensors, antibody titrated, then PGLYRP1 (blocked ligand, 971 nM per paragraph 383)
T12 construct: the whole entry is named; Captured on Octet AHC biosensors; also called immobilized TREM1-ECD; immobilized TREM1 protein
Description: (§5) The data was fitted with the sigmoidal (four-parameter) nonlinear regression equation. […] The data is from a single experiment that is representative of three replicates.
(§6) Briefly, recombinant hTREM1-chFc1 was immobilized on Octet AHC biosensors and then blocked with 100 μg/mL hIgG1-Fc. […] The incubation time between mAb and immobilized TREM1-ECD is limited to 300 s, thus limiting the amount of antibody that can bind to the immobilized TREM1, particularly at the sub-saturation concentrations.

[19] = target: T12, recombinant hTREM1-chFc1; experiment: BLI competition; hTREM1-chFc1 on AHC biosensor, antibody titrated 200 to 0.012 nM for 300 s, then 971 nM PGLYRP1 (competitor: PGLYRP1)
Description: as §5, §6

T2 sequence (P08637 17-208 F176V): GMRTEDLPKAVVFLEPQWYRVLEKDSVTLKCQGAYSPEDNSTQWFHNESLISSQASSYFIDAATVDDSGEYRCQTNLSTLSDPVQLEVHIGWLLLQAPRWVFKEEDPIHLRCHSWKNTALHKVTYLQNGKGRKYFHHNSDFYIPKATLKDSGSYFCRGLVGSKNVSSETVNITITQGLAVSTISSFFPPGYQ
T12 sequence (Q9NP99 21-205): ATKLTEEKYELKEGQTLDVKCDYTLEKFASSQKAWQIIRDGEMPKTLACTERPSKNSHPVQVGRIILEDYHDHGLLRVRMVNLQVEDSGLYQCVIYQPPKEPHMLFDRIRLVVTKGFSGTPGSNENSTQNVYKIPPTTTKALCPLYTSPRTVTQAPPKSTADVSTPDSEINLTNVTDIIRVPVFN
T8 sequence (P02745 23-245 limits assumed, chain 1 of 3): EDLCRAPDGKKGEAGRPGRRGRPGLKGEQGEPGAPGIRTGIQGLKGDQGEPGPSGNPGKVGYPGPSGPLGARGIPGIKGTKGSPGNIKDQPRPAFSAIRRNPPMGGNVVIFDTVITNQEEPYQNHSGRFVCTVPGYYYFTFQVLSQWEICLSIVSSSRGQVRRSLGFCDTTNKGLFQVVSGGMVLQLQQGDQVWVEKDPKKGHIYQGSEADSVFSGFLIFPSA
T8 sequence (P02746 28-253 limits assumed, chain 2 of 3): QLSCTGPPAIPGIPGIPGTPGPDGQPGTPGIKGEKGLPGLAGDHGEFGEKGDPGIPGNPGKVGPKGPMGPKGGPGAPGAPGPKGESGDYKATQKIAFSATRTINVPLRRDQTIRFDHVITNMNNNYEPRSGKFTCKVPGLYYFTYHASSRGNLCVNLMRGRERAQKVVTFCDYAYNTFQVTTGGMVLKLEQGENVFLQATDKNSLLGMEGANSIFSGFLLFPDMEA
T8 sequence (P02747 29-245 limits assumed, chain 3 of 3): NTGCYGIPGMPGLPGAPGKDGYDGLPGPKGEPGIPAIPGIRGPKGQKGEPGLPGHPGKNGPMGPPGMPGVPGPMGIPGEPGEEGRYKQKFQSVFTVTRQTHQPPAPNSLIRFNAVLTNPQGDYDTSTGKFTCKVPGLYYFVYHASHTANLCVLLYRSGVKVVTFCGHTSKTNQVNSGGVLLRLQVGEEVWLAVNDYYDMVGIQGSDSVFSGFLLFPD

- Kd [1]: 28.4 µM
- Kd [2]: 6.66 µM
- Ratio (against Trastuzumab; not defined) [3]: 0.33
- Ratio (against Trastuzumab; not defined) [4]: 0.05
- Maximum BLI response [5]: 0.005 nm
- Maximum BLI response [6]: 0.013 nm
- Kd [7]: 0.0019 µM
- Maximum BLI response [7]: 0.343 nm
- Maximum BLI response [8]: 0.005 nm
- Maximum BLI response [9]: 0.006 nm
- Ratio (against Trastuzumab; not defined) [10]: 0.33
- Ratio (against Trastuzumab; not defined) [11]: 0.05
- binding result [12]: no binding
- binding result [13]: binds
- binding result [14]: no binding (tested: 5 µg/mL)
- Kd [15]: 28.3 µM
- Kd [16]: 6.49 µM
- binding result [17]: no binding (tested: 3 ug/mL)
- IC50 (read off the curve) [18]: ~0.005 µM
- IC50 [19]: 0.0045 µM
B1: anti-TREM1 antibody agent clone A (antibody, human IgG1, kappa)
heavy: EVQLVESGGVLVQPGGSLRLSCAASGITFSNSWMSWVRQAPGKGLEWVANIKQDGSEKYYVDSVKGRFTISRDNAKESLFLQMNSLRAEDTAVYYCARGGISTFDIWGQGTMVTVSSASTKGPSVFPLAPSSKSTSGGTAALGCLVKDYFPEPVTVSWNSGALTSGVHTFPAVLQSSGLYSLSSVVTVPSSSLGTQTYICNVNHKPSNTKVDKKVEPKSCDKTHTCPPCPAPPVAGPSVFLFPPKPKDTLMISRTPEVTCVVVDVSHEDPEVKFNWYVDGVEVHNAKTKPREEQYNSTYRVVSVLTVLHQDWLNGKEYKCKVSNKALPAPIEKTISKAKGQPREPQVYTLPPSRDELTKNQVSLTCLVKGFYPSDIAVEWESNGQPENNYKTTPPVLDSDGSFFLYSKLTVDKSRWQQGNVFSCSVMHEALHNHYTQKSLSLSPGK
light: not shown
notes: heavy chain carries the IgG1 constant region with PVAdelG, light chain is kappa; also called anti-TREM1 clone A; Anti-TREM1 Antibody Clone A
